Measured values from IntAct's records for PubMed 9436979.

B1: Mothers against decapentaplegic homolog 6 (Homo sapiens), O43541 (parent)
chain: MFRSKRSGLVRRLWRSRVVPDREEGGSGGGGGGDEDGSLGSRAEPAPRAREGGGCGRSEVRPVAPRRPRDAVGQRGAQGAGRRRRAGGPPRPMSEPGAGAGSSLLDVAEPGGPGWLPESDCETVTCCLFSERDAAGAPRDASDPLAGAALEPAGGGRSREARSRLLLLEQELKTVTYSLLKRLKERSLDTLLEAVESRGGVPGGCVLVPRADLRLGGQPAPPQLLLGRLFRWPDLQHAVELKPLCGCHSFAAAADGPTVCCNPYHFSRLCGPESPPPPYSRLSPRDEYKPLDLSDSTLSYTETEATNSLITAPGEFSDASMSPDATKPSHWCSVAYWEHRTRVGRLYAVYDQAVSIFYDLPQGSGFCLGQLNLEQRSESVRRTRSKIGFGILLSKEPDGVWAYNRGEHPIFVNSPTLDAPGGRALVVRKVPPGYSIKVFDFERSGLQHAPEPDAADGPYDPNSVRISFAKGWGPCYSRQFITSCPCWLEILLNNPR

Variants of: B1
Settings: with smad1_human SMAD1, Q15797
Sequence of smad1_human SMAD1, Q15797 (Q15797 whole entry): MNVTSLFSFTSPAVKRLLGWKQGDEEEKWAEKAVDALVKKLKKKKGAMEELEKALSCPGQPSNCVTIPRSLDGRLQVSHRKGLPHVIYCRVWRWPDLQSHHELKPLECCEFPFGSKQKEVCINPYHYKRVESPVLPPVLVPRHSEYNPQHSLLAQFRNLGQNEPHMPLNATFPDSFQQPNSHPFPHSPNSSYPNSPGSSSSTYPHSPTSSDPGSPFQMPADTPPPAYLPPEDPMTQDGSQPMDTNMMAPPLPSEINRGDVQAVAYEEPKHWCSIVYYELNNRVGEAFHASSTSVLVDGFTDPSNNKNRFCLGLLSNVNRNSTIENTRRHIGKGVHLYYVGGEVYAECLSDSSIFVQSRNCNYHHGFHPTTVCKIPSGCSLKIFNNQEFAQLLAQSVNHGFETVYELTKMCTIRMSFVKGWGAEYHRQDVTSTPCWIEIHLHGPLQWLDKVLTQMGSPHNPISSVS

Row | Variant | effect of a mutation on the interaction
1 | G471S | disrupting interaction
